Results published in US20120100152A1 (Sanofi, published 2012).
Changes are numbered by the printed parent chain. Names and notes keep the numbering of the source. Values belong to the binder of their own block, whether it stands above or below them. Primed or numbered codes have the meaning given here. Ends that are not written are not given here. Biotin′ = not defined here

Tests used:
human CD52 (wildtype) [1] = target: T1, human CD52 (wildtype) (human, not fully specified (residue 3); also: N-linked glycan, GPI anchor); test: flow cytometry, huCD52 transgenic mouse CD4+ T cells, FITC goat F(ab)2 anti-human Fc gamma secondary, GraphPad Prism fit (Example 29)
T1 construct: also called huCD52; hCD52
T1 chain: GQNDTSQTSSPS
Procedure: (§1) The EC₅₀ values of chimeric and humanized anti-CD52 antibodies were estimated using CD4+ T cells isolated from healthy donor PBMCs obtained from commercial sources (Bioreclamation, NY, USA). CD4+ T cells were isolated by negative selection using an EasySep kit (Stem Cell Technologies). […] Briefly, human CD4+ T cells were isolated from 50 ml of peripheral blood from healthy volunteers (Bioreclamation), and huCD52 transgenic mouse CD4+ T cells were isolated from spleen tissue. Cells were rinsed with PBS/5% FBS and deposited into round-bottom 96 well plates at 1×10⁵ cells per well. Primary antibody staining was done with an 8 point serial dilution (1:3) of each anti-CD52 chimeric and humanized antibody starting at 100 μg/mL. […] Cells were washed 3 times in ice-cold PBS/5% FBS before and after each incubation. Cells were fixed with PBS containing 2% methanol-free paraformaldehyde and evaluated by flow cytometry. The flow cytometry data was analyzed using GraphPad Prism software to determine an EC₅₀ value with 95% confidence interval.

human CD52 (wildtype) [2] = target: T1, human CD52 (wildtype); test: flow cytometry, human CD4+ T cells from PBMC, FITC goat F(ab)2 anti-human Fc gamma secondary, GraphPad Prism fit (Example 29)
Procedure: as §1

human CD52 (wildtype) [3] = target: T1, human CD52 (wildtype); test: flow cytometry, CHO-CD52 cells, 12-point titration
Procedure: The EC50 values of selected anti-CD52 antibodies were estimated using CHO cells engineered to express CD52. CHO-CD52 cells were trypsinized in 0.25% trypsin, collected, and rinsed with PBS/5% FBS. Cells were then deposited into round-bottom 96 well plates at 1E5 cells per well. Primary antibody staining was done with a 12 point serial dilution (1:2) of each anti-CD52 chimeric antibody starting at 50 μg/mL. […] Cells were washed 3 times in ice-cold PBS/5% FBS before and after each incubation. Cells were fixed with PBS containing 2% methanol-free paraformaldehyde and evaluated by flow cytometry.

human CD52 (wildtype) [4] = target: T1, human CD52 (wildtype); test: flow cytometry, CHO-CD52 cells
human CD52 (wildtype) [5] = target: T1, human CD52 (wildtype); test: flow cytometry, CD4+ T cells, 8-point titration
Procedure: as §1

[6] = target: T2, MUT 2 alanine-scanning mutant hCD52 peptide (human); test: Biacore T100 SPR, antibody immobilized, peptide injected at up to 500 nM;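 also: Amine-coupled antibody (10,000 RU), 25 °C in HBS-EP+ pH 7.4, 5 min association then 5 min dissociation, 1:1 fit with blank flow cell and 0 nM double-referencing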
T2 construct: Synthetic
T2 peptide: GANDTSQTSSPSADC
Source text: (§2) The carboxymethyl dextran surface was activated using a 1:1 mixture of 0.1M N-hydroxysuccinimide (NHS) and 0.4M N-ethyl-N′-(3-dimethylaminopropyl)carbodiimide hydrochloride (EDC), allowing the surface to bind reactive amine groups on the antibodies. […] Following antibody immobilization, the reactive sensor chip surface was quenched using 1M ethanolamine hydrochloride/NaOH pH 8.5. One flow cell on each chip was a blank reference surface, and subsequent flow cells were immobilized with 10,000 RU of antibody.
(§3) Peptides were diluted into the assay running buffer, HBS-EP+ (10 mM HEPES, 150 mM NaCl, 0.05% P20 surfactant, 3 mM EDTA, pH 7.4). Duplicates of 100 nM samples were included. […] The T100 instrument sample chamber and assay temperatures were set to 4° C. and 25° C., respectively. The human CD52 peptide samples were injected for five minutes at a 50 μl/min flow rate to measure association, and washed in HBS-EP+ for five minutes at a 50 μl/min flow rate to measure dissociation. The antibody surface was stripped of any remaining bound peptide using a sixty second injection of 10 mM glycine-HCl pH 2.0 at a 50 μl/min flow rate. Analysis was performed using Biacore T100 Kinetics Evaluation software v2.0 (GE Healthcare). Data was fit to a 1:1 model with reference flow cell and 0 nM concentration subtraction (double-reference subtraction).

[7] = target: T3, WT 1 wildtype human CD52 peptide (human, not fully specified (residue 15); printed as GQNDTSQTSSPSADK-Biotin); test: as above
T3 construct: Synthetic
T3 peptide: GQNDTSQTSSPSADK-{Biotin′}
Source text: as §2, §3

[8] = target: T4, MUT 4 alanine-scanning mutant hCD52 peptide (human); test: as above
T4 construct: Synthetic
T4 peptide: GQNATSQTSSPSADC
Source text: as §2, §3

[9] = target: T5, MUT 12 alanine-scanning mutant hCD52 peptide (human); test: as above
T5 construct: Synthetic
T5 peptide: GQNDTSQTSSPAADC
Source text: as §2, §3

[10] = target: T6, MUT 6 alanine-scanning mutant hCD52 peptide (human); test: as above
T6 construct: Synthetic
T6 peptide: GQNDTAQTSSPSADC
Source text: as §2, §3

[11] = target: T7, MUT 5 alanine-scanning mutant hCD52 peptide (human); test: as above
T7 construct: Synthetic
T7 peptide: GQNDASQTSSPSADC
Source text: as §2, §3

[12] = target: T8, MUT 10 alanine-scanning mutant hCD52 peptide (human); test: as above
T8 construct: Synthetic
T8 peptide: GQNDTSQTSAPSADC
Source text: as §2, §3

[13] = target: T9, MUT 1 alanine-scanning mutant hCD52 peptide (human); test: as above
T9 construct: Synthetic
T9 peptide: AQNDTSQTSSPSADC
Source text: as §2, §3

[14] = target: T10, MUT 9 alanine-scanning mutant hCD52 peptide (human); test: as above
T10 construct: Synthetic
T10 peptide: GQNDTSQTASPSADC
Source text: as §2, §3

[15] = target: T11, MUT 3 alanine-scanning mutant hCD52 peptide (human); test: as above
T11 construct: Synthetic
T11 peptide: GQADTSQTSSPSADC
Source text: as §2, §3

[16] = target: T10, MUT 9 alanine-scanning mutant hCD52 …; test: Biacore T100, antibody immobilised on a CM5 chip, peptide injected
Source text: as §2, §3

[17] = target: T12, MUT 8 alanine-scanning mutant hCD52 peptide (human); test: Biacore T100 SPR, antibody immobilized, peptide injected at up to 500 nM;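 also: Amine-coupled antibody (10,000 RU), 25 °C in HBS-EP+ pH 7.4, 5 min association then 5 min dissociation, 1:1 fit with blank flow cell and 0 nM double-referencing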
T12 construct: Synthetic
T12 peptide: GQNDTSQASSPSADC
Source text: as §2, §3

[18] = target: T13, MUT 7 alanine-scanning mutant hCD52 peptide (human); test: as above
T13 construct: Synthetic
T13 peptide: GQNDTSATSSPSADC
Source text: as §2, §3

B2: chimeric 12G6 antibody (antibody, human IgG1, V domains shown)
VH: EVQLEESGGGLVQPGGSMKLSCVASGFPFSNYWMNWVRQSPEKGLEWVAQIRLKSNNYATHYAESVKGRFTIARDDSKSSVYLQMNNLRAEDTGIYYCTPIDYWGQGTTLTVSS
VL: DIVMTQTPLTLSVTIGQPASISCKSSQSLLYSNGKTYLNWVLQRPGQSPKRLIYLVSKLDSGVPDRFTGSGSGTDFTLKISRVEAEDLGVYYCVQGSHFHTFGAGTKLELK
notes: also called 12G6-Chi; 12G6-chimeric
EC50 (human CD52 (wildtype) [1]): 34.4 nM
EC50 (human CD52 (wildtype) [2]): 22.4 nM
EC50 (human CD52 (wildtype) [3]): 0.95 µg/mL

B4: chimeric 9D9 antibody (antibody, human IgG1, V domains shown)
VH: EVKLEESGGGLVQPGGSMKLSCAASGFTFSDAWMDWVRQSPEKGLELTAEIRNKAKNHATYYAESVKGRFTISRDDSKSRVYLQMNSLRTEDTGIYYCTTLDSWGQGTSVTVSS
VL: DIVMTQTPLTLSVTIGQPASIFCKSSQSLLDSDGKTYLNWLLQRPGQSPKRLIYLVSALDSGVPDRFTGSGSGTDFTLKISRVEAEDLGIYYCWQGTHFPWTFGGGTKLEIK
notes: also called 9D9-Chi; 9D9-chimeric
EC50 (human CD52 (wildtype) [3]): 6.05 µg/mL
EC50 (human CD52 (wildtype) [4]): 5 to 7 µg/mL

B6: humanized antibody 2C3-SFD1/K12 (antibody, V domains shown)
VH: EVQLVESGGGLVQPGGSLRLSCAASGFTFNTYWMNWVRQAPGKGLEWVGQIRLKSNNYATHYAESVKGRFTISRDDSKNSLYLQMNSLKTEDTAVYYCTPVDFWGQGTTVTVSS
VL: DIVMTQTPLSLSVTPGQPASISCKSSQSLLYSNGKTYLNWLLQKPGQSPQRLIYLVSKLDSGVPDRFSGSGSGTDFTLKISRVEAEDVGVYYCVQGTHLHTFGQGTRLEIKR
notes: also called 2C3 K12; 2C3 unmodified
EC50 (human CD52 (wildtype) [1]): 13.6 nM
EC50 (human CD52 (wildtype) [2]): 11 nM
fold lower EC50 than Campath-1H® (human CD52 (wildtype) [5]): 2 fold
binding result [6]: binds
binding result [7]: binds
binding result [8]: binds
binding result [9]: binds
binding result [10]: binds
binding result [11]: binds
binding result [12]: binds
binding result [13]: binds
binding result [14]: binds
binding result [15]: binds

B9: humanized antibody 4B10-H1/K1 (antibody, V domains shown)
VH: EVQLVESGGGLVQPGGSLRLSCAASGFTFSDYYMSWVRQAPGKGLEWVGFIRNKANGYTTEYSASVKGRFTISRDDSKNSLYLQMNSLKTEDTAVYYCARYIWFDYWGQGTTVTVSS
VL: DIVMTQTPLSLSVTPGQPASISCRSSQSLVHTNGNTYLHWYLQKPGQSPQLLIYMVSNRFSGVPDRFSGSGSGTDFTLKISRVEAEDVGVYYCSQSAHVPPLTFGQGTRLEIKR
notes: also called 4B10-Humanized; 4B10 humanized (H1/K1)
EC50 (human CD52 (wildtype) [3]): 2.23 µg/mL

Further lines, results first:

EC50 (human CD52 (wildtype) [1]): 25.1 nM
EC50 (human CD52 (wildtype) [2]): 21.9 nM
EC50 (human CD52 (wildtype) [3]): 1.36 µg/mL
B1: Campath-1H® (alemtuzumab) (antibody, IgG1, V domains shown)
VH: QVQLQESGPGLVRPSQTLSLTCTVSGFTFTDFYMNWVRQPPGRGLEWIGFIRDKAKGYTTEYNPSVKGRVTMLVDTSKNQFSLRLSSVTAADTAVYYCAREGHTAAPFDYWGQGSLVTVSS
VL: DIQMTQSPSSLSASVGDRVTITCKASQNIDKYLNWYQQKPGKAPKLLIYNTNNLQTGVPSRFSGSGSGTDFTFTISSLQPEDIATYYCLQHISRPRTFGQGTKVEIKR
notes: Humanized IgG1/kappa; also called C1H; C-1H; copies: 2 + 2

EC50 (human CD52 (wildtype) [1]): 30.8 nM
EC50 (human CD52 (wildtype) [2]): 25.9 nM
EC50 (human CD52 (wildtype) [3]): 1.32 µg/mL
B3: chimeric 2C3 antibody (antibody, human IgG1, V domains shown)
VH: B2 VH with Q3K, P28T, S30N, N31T, A73S, S79N, I101V, Y103F
VL: DIVITQTPLTLSVTIGQPVSISCKSSQSLLYSNGKTYLNWLLQRPGQSPKRLIYLVSKLDSGVPDRFTGSGSGTDFTLKISRVEAEDLGVYYCVQGTHLHTFGAGTKLELK
notes: also called 2C3-Chi; 2C3-chimeric

EC50 (human CD52 (wildtype) [1]): 13.2 nM
EC50 (human CD52 (wildtype) [2]): 7.3 nM
B5: humanized antibody 12G6-SFD1/K11 (antibody, human IgG1, V domains shown)
VH: B6 VH with T28P, N30S, T31N, V101I, F103Y
VL: DIVMTQTPLSLSVTPGQPASISCKSSQSLLYSNGKTYLNWVLQKPGQSPKRLIYLVSKLDSGVPDRFSGSGSGTDFTLKISRVEAEDVGVYYCVQGSHFHTFGQGTKLEIK
notes: also called 12G6 K11; 12G6 hu

EC50 (human CD52 (wildtype) [2]): 10.6 nM
binding result [16]: binds
binding result [6]: binds
binding result [7]: binds
binding result [8]: binds
binding result [9]: binds
binding result [10]: binds
binding result [11]: binds
binding result [12]: binds
binding result [13]: binds
binding result [15]: binds
B7: humanized antibody 12G6-SFD1/K12 (antibody, V domains shown)
VH: B6 VH with T28P, N30S, T31N, V101I, F103Y
VL: B6 VL with L41V, T97S, L99F, R107K
notes: also called 12G6 K12; GLD52

binding result [6]: binds
binding result [17]: binds
binding result [18]: binds
binding result [7]: binds
binding result [9]: binds
binding result [10]: binds
binding result [11]: binds
binding result [12]: binds
binding result [13]: binds
binding result [14]: binds
binding result [15]: binds
B8: humanized antibody 9D9-H16/K13 (antibody, V domains shown)
VH: EVQLLESGGGLVQPGGSLRLSCAASGFTFSDAWMDWVRQAPGKGLELVSEIRNKAKNHATYYAESVKGRFTISRDNSKNTLYLQMNSLRAEDTAVYYCTTLDSWGQGTTVTVSS
VL: DIVMTQTPLSLSVTPGQPASISCKSSQSLLDSDGKTYLNWLLQKPGQSPQRLIYLVSALDSGVPDRFSGSGSGTDFTLKISRVEAEDVGVYYCWQGTHFPWTFGQGTKLEIKR
